The results in this text go back to patent US20190234935A1 (Janssen / Centocor, published 2019).

The target of experiment [1] is T1, cyno GFRAL ECD-Fc (cynomolgus monkey GFRAL extracellular domain fused to human IgG1 Fc with 6xHis-tag) (cynomolgus monkey). The experiment is described as follows: SPR (ProteOn). On the procedure: Affinity measurements using Surface Plasmon Resonance (SPR) were performed using a ProteOn XPR36 system (Bio-Rad, Hercules, Calif.). A biosensor surface was prepared by coupling anti-Human IgG Fc (Jackson Immuno Research Labs, West Grove, Pa.) to the modified alginate polymer layer surface of a GLC chip (BioRad) using the manufacturer's instructions for amine-coupling chemistry. Approximately 5000 RU (response units) of mAbs were immobilized. The kinetic experiments were performed at 25° C. in running buffer (DPBS+0.01% P20+100 μg/ml BSA). To perform binding kinetic experiment of HSA-GDF15, GFRAL ECD-Fc or isotype control were captured followed by injections of ligands at 5 concentrations (in a 4-fold serial dilution). The association phase was monitored for 3 minutes at 50 μl/min, then followed by 15 minutes of buffer flow (dissociation phase). The chip surface was regenerated with two 18 second pulses of 100 mM H3PO4 (Sigma, St. Louis, Mo.) at 100 μL/min. The collected data were processed using ProteOn Manager software. First, the data was corrected for background using inter-spots. Then, double reference subtraction of the data was performed by using the buffer injection for analyte injections. The kinetic analysis of the data was performed using a Langmuir 1:1 binding model. […]

The target in experiment [2] is T1, cyno GFRAL ECD-Fc (cynomolgus monkey …). The experiment is described as follows: SPR (ProteOn), GFRAL ECD-Fc captured by anti-human IgG Fc. How it is done:
(§1) Affinity measurements using Surface Plasmon Resonance (SPR) were performed using a ProteOn XPR36 system (Bio-Rad, Hercules, Calif.). A biosensor surface was prepared by coupling anti-Human IgG Fc (Jackson Immuno Research Labs, West Grove, Pa.) to the modified alginate polymer layer surface of a GLC chip (BioRad) using the manufacturer's instructions for amine-coupling chemistry. Approximately 5000 RU (response units) of mAbs were immobilized. The kinetic experiments were performed at 25° C. in running buffer (DPBS+0.01% P20+100 μg/ml BSA). To perform binding kinetic experiment of HSA-GDF15, GFRAL ECD-Fc or isotype control were captured followed by injections of ligands at 5 concentrations (in a 4-fold serial dilution). The association phase was monitored for 3 minutes at 50 μl/min, then followed by 15 minutes of buffer flow (dissociation phase). The chip surface was regenerated with two 18 second pulses of 100 mM H3PO4 (Sigma, St. Louis, Mo.) at 100 μL/min. The collected data were processed using ProteOn Manager software. First, the data was corrected for background using inter-spots. Then, double reference subtraction of the data was performed by using the buffer injection for analyte injections. The kinetic analysis of the data was performed using a Langmuir 1:1 binding model. The result was reported in the format of ka (On-rate), kd (Off-rate) and KD (equilibrium dissociation constant).

The target of experiment [3] is T2, Human GFRAL ECD-Fc (human GFRAL extracellular domain fused to human IgG1 Fc with 6xHis-tag) (human, UniProt Q6UXV0 19-351).
T2 construct: not shown: Human IgG1 Fc, any junction and the C-terminal 6xHis
T2 sequence: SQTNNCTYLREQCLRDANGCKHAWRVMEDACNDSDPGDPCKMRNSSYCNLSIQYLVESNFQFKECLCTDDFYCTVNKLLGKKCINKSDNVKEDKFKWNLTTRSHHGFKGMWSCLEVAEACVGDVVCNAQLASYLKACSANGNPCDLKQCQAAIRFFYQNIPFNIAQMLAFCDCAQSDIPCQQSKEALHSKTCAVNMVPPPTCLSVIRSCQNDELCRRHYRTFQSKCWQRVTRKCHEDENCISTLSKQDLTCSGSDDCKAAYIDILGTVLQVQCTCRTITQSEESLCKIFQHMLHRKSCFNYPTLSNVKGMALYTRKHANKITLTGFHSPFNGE
The description is as above. On the procedure: as §1

For experiment [4], the target named is T3, GFRAL ECD-Fc (GFRAL extracellular domain, human IgG1 Fc, 6xHis-tag and Avi-tag) (human, UniProt Q6UXV0 19-351).
T3 construct: The recombinant signal peptide is left out; also called GFRAL extracellular domain (ECD)-Fc fusion; not shown: human IgG1 Fc; 6xHis-tag and Avi-tag at the C-terminus
T3 sequence: T2 sequence
The experiment is described as follows: SPR. For orientation: Surface plasmon resonance follows binding to a sensor surface in real time, without labels.

Some results are limits rather than exact numbers.

B1: HSA-GDF15 (Example 7; linker SEQ ID NO:26) (ligand, not shown: large carriers; small tags and cut ends)
chain: ARNGDHCPLGPGRCCRLHTVRASLEDLGWADWVLSPREVQVTMCIGACPSQFRAANMHAQIKTSLHRLKPDTVPAPCCVPASYNPMVLIQKTDTGVSLQTYDDLLAKDCHCI
modifications: Disulfide-linked homodimer through GDF15; one protomer is given.
notes: No His tag is told of for this construct; purified on HSA CaptureSelect resin
In the case of B1, the “fold difference in binding affinity against human GFRAL” value in experiment [1] was not above 2 fold. In experiment [2], binding was characterised by a dissociation constant (Kd) of 157 pM; the koff – broadly, a measure of how fast the partners let go of each other – was found to be 0.000291 s⁻¹; the kon (in general, the rate constant with which the complex forms) turned out to be 1.86e+06 M⁻¹ s⁻¹. In addition, in experiment [3], the dissociation constant (Kd) (commonly the constant that tells how readily two partners part at equilibrium) worked out at 86.1 pM, the koff came out at 0.000156 s⁻¹ and the kon is 1.81e+06 M⁻¹ s⁻¹.

B2: FlagTag-GDF15, homodimer (ligand)
chain: EFDYKDDDDKARNGDHCPLGPGRCCRLHTVRASLEDLGWADWVLSPREVQVTMCIGACPSQFRAANMHAQIKTSLHRLKPDTVPAPCCVPASYNPMVLIQKTDTGVSLQTYDDLLAKDCHCI
notes: it is counted on the native full length protein; also called non-fusion GDF15; mature GDF15 homodimer
In experiment [4], B2 registered a Kd of 19.6 pM, a koff of 0.000197 s⁻¹ and a kon of 1.01e+07 M⁻¹ s⁻¹.
